The values below are quoted from earlier work in article PMC5331060.

Like-named read-outs stand apart in the source and are kept apart here.

As a reminder, the Kd is a measure of binding affinity in units of concentration.

Data set [1] has as its target beta clamp (Escherichia coli) (UniProt P0A988).
The target is the same in data set [2]. The source holds these as a separate data set.

UniProt P0A988, sequence (P0A988 whole entry): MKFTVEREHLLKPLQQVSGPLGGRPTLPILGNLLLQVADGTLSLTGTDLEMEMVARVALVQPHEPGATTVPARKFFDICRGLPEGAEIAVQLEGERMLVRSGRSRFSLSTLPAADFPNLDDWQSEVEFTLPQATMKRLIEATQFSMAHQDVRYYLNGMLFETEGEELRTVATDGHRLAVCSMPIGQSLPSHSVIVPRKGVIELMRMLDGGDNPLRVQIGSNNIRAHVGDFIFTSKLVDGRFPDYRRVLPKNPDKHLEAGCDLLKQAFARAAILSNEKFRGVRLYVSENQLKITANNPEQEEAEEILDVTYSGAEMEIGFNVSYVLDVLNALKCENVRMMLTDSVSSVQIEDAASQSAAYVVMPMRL

On to DinB (Pol IV) (from UniProt Q47155), for which the Kd in data set [1] was 460 nM.
On to Pol III alpha (from UniProt P10443), for which, in data set [2], the equilibrium dissociation constant (Kd) was 108 nM.
